B1: LRRC4B (36-576): full-length ectodomain of LRRC4B protein, amino acids 36-576 of SEQ ID NO: 2; FLAG-tagged or conjugated to human Fc (protein)
chain: AGGGGVAVTSAAGGGSPPATSCPVACSCSNQASRVICTRRDLAEVPASIPVNTRYLNLQENGIQVIRTDTFKHLRHLEILQLSKNLVRKIEVGAFNGLPSLNTLELFDNRLTTVPTQAFEYLSKLRELWLRNNPIESIPSYAFNRVPSLRRLDLGELKRLEYISEAAFEGLVNLRYLNLGMCNLKDIPNLTALVRLEELELSGNRLDLIRPGSFQGLTSLRKLWLMHAQVATIERNAFDDLKSLEELNLSHNNLMSLPHDLFTPLHRLERVHLNHNPWHCNCDVLWLSWWLKETVPSNTTCCARCHAPAGLKGRYIGELDQSHFTCYAPVIVEPPTDLNVTEGMAAELKCRTGTSMTSVNWLTPNGTLMTHGSYRVRISVLHDGTLNFTNVTVQDTGQYTCMVTNSAGNTTASATLNVSAVDPVAAGGTGSGGGGPGGSGGVGGGSGGYTYFTTVTVETLETQPGEEALQPRGTEKEPPGPTTDGVWGGGRPGDAAGPASSSTTAPAPRSSRPTEKAFTVPITDVTENALKDLDDVMKTTK
modifications: FLAG tag or human Fc
B2: LRRC4 full-length ectodomain: full-length ectodomain of LRRC4 protein, amino acid residues 39-527 of SEQ ID NO: 1, conjugated to human Fc (protein)
chain: ASAGPQNCPSVCSCSNQFSKVVCTRRGLSEVPQGIPSNTRYLNLMENNIQMIQADTFRHLHHLEVLQLGRNSIRQIEVGAFNGLASLNTLELFDNWLTVIPSGAFEYLSKLRELWLRNNPIESIPSYAFNRVPSLMRLDLGELKKLEYISEGAFEGLFNLKYLNLGMCNIKDMPNLTPLVGLEELEMSGNHFPEIRPGSFHGLSSLKKLWVMNSQVSLIERNAFDGLASLVELNLAHNNLSSLPHDLFTPLRYLVELHLHHNPWNCDCDILWLAWWLREYIPTNSTCCGRCHAPMHMRGRYLVEVDQASFQCSAPFIMDAPRDLNISEGRMAELKCRTPPMSSVKWLLPNGTVLSHASRHPRISVLNDGTLNFSHVLLSDTGVYTCMVTNVAGNSNASAYLNVSTAELNTSNYSFFTTVTVETTEISPEDTTRKYKPVPTTSTGYQPAYTTSTTVLIQTTRVPKQVAVPATDTTDKMQTSLDEVMKTTK
modifications: conjugated to human Fc
B3: full-length LRRC4C protein: full-length ectodomain of LRRC4C protein, amino acids 45-527 of SEQ ID NO: 3, conjugated to human Fc (protein)
chain: QTCPSVCSCSNQFSKVICVRKNLREVPDGISTNTRLLNLHENQIQIIKVNSFKHLRHLEILQLSRNHIRTIEIGAFNGLANLNTLELFDNRLTTIPNGAFVYLSKLKELWLRNNPIESIPSYAFNRIPSLRRLDLGELKRLSYISEGAFEGLSNLRYLNLAMCNLREIPNLTPLIKLDELDLSGNHLSAIRPGSFQGLMHLQKLWMIQSQIQVIERNAFDNLQSLVEINLAHNNLTLLPHDLFTPLHHLERIHLHHNPWNCNCDILWLSWWIKDMAPSNTACCARCNTPPNLKGRYIGELDQNYFTCYAPVIVEPPADLNVTEGMAAELKCRASTSLTSVSWITPNGTVMTHGAYKVRIAVLSDGTLNFTNVTVQDTGMYTCMVSNSVGNTTASATLNVTAATTTPFSYFSTVTVETMEPSQDEARTTDNNVGPTPVVDWETTNVTTSLTPQSTRSTEKTFTIPVTDINSGIPGIDEVMKTTK
modifications: conjugated to human Fc

How the values were obtained:
FAM19A5 protein [1] = target: T1, FAM19A5 protein (Homo sapiens, UniProt Q7Z5A7); test: ELISA binding of recombinant FAM19A5 to coated hFc-conjugated LRRC4 family ectodomains, fragments or synthetic peptides; details: for binding to FAM19A5 protein (ELISA, in words): coated 100 nM/well, FAM19A5 up to 10 nM; for EC50: hFc-conjugated ectodomain coated 100 nM/well, FAM19A5 0.005-10 nM, 37° C. 1 hour
Description: Next, to confirm the above co-immunoprecipitation results, an ELISA assay was used to measure the binding of the FAM19A5 protein to either the full-length ectodomain of members of LRRC4 protein family or various LRRC4B ectodomain protein fragments. Specifically, an ELISA plate was coated with one of the following LRRC4B ectodomain protein, which was conjugated to human Fc (100 nM/well): (1) full-length ectodomain of LRRC4 protein (amino acid residues 39-527 of SEQ ID NO: 1) (SEQ ID NO: 4); (2) full-length ectodomain of LRRC4B protein (amino acids 36-576 of SEQ ID NO: 2; i.e., construct #7 in Table 6) (SEQ ID NO: 5); (3) full-length ectodomain of LRRC4C protein (amino acids 45-527 of SEQ ID NO: 3) (SEQ ID NO: 6); (4) LRRC4B ectodomain fragment (amino acids 453-576 of SEQ ID NO: 2; i.e., construct #11 in Table 6) (SEQ ID NO: 7); (5) LRRC4B ectodomain fragment (amino acids 484-576 of SEQ ID NO: 2; i.e., construct #12 in Table 6) (SEQ ID NO: 8); (6) LRRC4B ectodomain fragment (amino acids 482-576 of SEQ ID NO: 2) (SEQ ID NO: 9); (7) LRRC4B ectodomain fragment (amino acids 482-497 of SEQ ID NO: 2) (SEQ ID NO: 10); and (8) LRRC4B ectodomain fragment (amino acids 498-576 of SEQ ID NO: 2; i.e., construct #13 in Table 6) (SEQ ID NO: 11). Then, recombinant FAM19A5 proteins (0.005, 0.01, 0.025, 0.05, 0.1, 0.25, 0.5, 1, 2.5, 5, and 10 nM) were added to the relevant wells, and the plates were incubated at 37° C. for 1 hour. Afterwards, the amount of LRRC4B-bound FAM19A5 protein was detected using HRP-conjugated anti-FAM19A5 (1-65) antibody.
As further confirmation, three synthetic polypeptides comprising amino acids 484-497 of SEQ ID NO: 2 (i.e., YTYFTTVTVETLET; SEQ ID NO: 65) were constructed: (1) FB-16 (GYTYFTTVTVETLETQ; SEQ ID NO: 17), (2) FB-20 ([…]; SEQ ID NO: 18), and (3) FB-28 ([…]; SEQ ID NO: 19). The peptides differed in their total length. The ability of these polypeptides to bind to recombinant FAM19A5 protein was assessed using an ELISA assay as described above.

[2] = system: mouse primary cortical neurons; test: Neurite growth of mouse primary cortical neurons in vitro; format: cell-based; details: treated days 1 and 2, assessed day 3, anti-beta-tubulin III; LRRC4B fragment 0.006 to 60 nM; versus control
Description: Next, primary cortical neurons (day 1 postnatal) were cultured in vitro with varying concentrations (0.006 to 60 nM) of the LRRC4B (453-576) protein fragment (i.e., amino acid residues 453-576 of SEQ ID NO: 2; SEQ ID NO: 7), and then at day 3 post-initial culture, the effect on neurite growth was assessed by immunostaining the cells with anti-beta-tubulin III antibody. Cells cultured with DMSO (“Veh”) were used as control.
Mouse hippocampal neurons were treated with LRRC4B peptides at 1 and 2 DIV to determine neurite growth. It was measured by using 3 different parameters, which are total neurites length, number of primary and secondary neurites. After the neurons were stained with beta-tubulin III at 3 DIV, neurites length and branch points were measured using Fiji (Image J, NIH, Bethesda). Individual neurons were selected by hand and these parameters were counted using the Simple neurite tracer plugin. Mouse spinal motor neurons sampled at postnatal day 1 were treated with 10 nM of NS101 and LRRC4B-peptides (dFB-dWY-JM31 and dFB-DY-JM31) at 1 and 2 DIV and immunostained with Tau-5 antibody at 3 DIV. Total neurite length and number of somas in images were measured by Neurphology Image J plugin.

FAM19A5 protein [3] = target: T1, FAM19A5 protein; test: Co-immunoprecipitation of FLAG-tagged LRRC4 family deletion constructs/fragments with recombinant FAM19A5 in HEK293 cells; format: binding; details: HEK293 cells expressing FLAG-tagged construct, recombinant FAM19A5 1 μM 30 minutes; IP anti-FLAG, blot anti-FAM19A5 (3-2)
Description: To understand the interaction between FAM19A5 and members of the LRRC4 protein family, HEK293 cells were modified to express a FLAG-tagged member of the LRRC4 protein family, i.e., LRRC4C protein, LRRC4 protein, or LRRC4B protein. Then, the HEK293 cells or primary cortical neurons were treated with recombinant FAM19A5 protein (1 μM) for 30 minutes, and the binding between FAM19A5 protein and the different members of the LRRC4 protein family was assessed using both co-immunoprecipitation and immunofluorescence assays.
For the co-immunoprecipitation assay, cell lysates from the different FAM19A5-treated HEK293 cells were collected and immunoprecipitated with an anti-FLAG antibody, anti-FAM19A5 (1-65) antibody, or a human IgG antibody (control). Immunoprecipitated proteins were immunoblotted with anti-FLAG and anti-FAM19A5 (3-2) antibodies. For the immunofluorescence assay, the HEK293 cells treated with the recombinant FAM19A5 protein were immunostained with anti-FAM19A5 (3-2) (to detect FAM19A5 protein expression) and anti-FLAG antibodies (to detect member of the LRRC4 protein family). The primary cortical neurons treated with the recombinant FAM19A5 protein were immunostained with anti-FAM19A5 (3-2) and anti-LRRC4B antibodies. The nuclei were stained with Hoechst33342 (blue).
To determine the specific motif or domain of the LRRC4B protein that is responsible for the binding to a FAM19A5 protein, various FLAG-tagged LRRC4B deletion constructs were generated (see Table 6 below). HEK293 cells were transfected with the different deletion constructs and then treated with recombinant FAM19A5 protein as described in Example 1. Then, the cell lysates from the different HEK293 cells were immunoprecipitated with the anti-FLAG antibody. The immunoprecipitated proteins were immunoblotted with anti-FLAG and anti-FAM19A5 (3-2) antibodies.
As described in Example 2, all members of the LRRC4 protein family were capable of binding to FAM19A5 protein to varying degrees. Therefore, to compare the bindings domains, the amino acid sequences of the LRRC4B, LRRC4, and LRRC4C proteins were aligned. […] Therefore, to assess whether the corresponding positions of LRRC4 and LRRC4C were important in the binding of these proteins to FAM19A5 protein, cDNAs encoding either (i) LRRC4C protein fragment (amino acids 354-527 of SEQ ID NO: 3; SEQ ID NO: 66) or (ii) LRRC4 protein fragment (amino acids 353-527 of SEQ ID NO: 1; SEQ ID NO: 67) were constructed (see Table 7). HEK293 cells were transfected to express either of the protein fragments and then treated with recombinant FAM19A5 protein as described in Example 1. Then, the cell lysates from the different HEK293 cells were immunoprecipitated with the anti-FLAG antibody. The immunoprecipitated proteins were immunoblotted with anti-FLAG and anti-FAM19A5 (3-2) antibodies.

T1 sequence (Q7Z5A7 44-132): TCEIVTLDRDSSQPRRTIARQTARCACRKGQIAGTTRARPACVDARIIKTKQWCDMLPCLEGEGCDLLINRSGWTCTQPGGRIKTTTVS

Row | Molecule | binding to FAM19A5 protein (ELISA, in words) (FAM19A5 protein [1]) | neurite growth / neurite outgrowth [2] | binding to FAM19A5 protein (co-immunoprecipitation) (FAM19A5 protein [3]) | EC50 (FAM19A5 protein [1]) [nM]
1 | GYTYFTTVTVETLETQ [FB-16] | able to bind to recombinant FAM19A5 protein with high affinity | Increased neurite outgrowth |  | 
2 | GYTYFTTVTVETLETQPGEKEPPGPTTD [FB-28] | able to bind to recombinant FAM19A5 protein with high affinity | Increased neurite outgrowth |  | 
3 | B1 |  |  | able to bind to the FAM19A5 protein with varying degree | 0.64
4 | B2 |  |  |  | 0.48
5 | B3 | No saturation in binding was observed |  |  | 
